Reference: patent US20230183713A1, “SITE-SPECIFIC RECOMBINASES FOR EFFICIENT AND SPECIFIC GENOME EDITING” (TECHNISCHE UNIVERSITÄt DRESDEN, published 2023)

T1: Cre recombinase monomer with E176I mutation
T1 chain: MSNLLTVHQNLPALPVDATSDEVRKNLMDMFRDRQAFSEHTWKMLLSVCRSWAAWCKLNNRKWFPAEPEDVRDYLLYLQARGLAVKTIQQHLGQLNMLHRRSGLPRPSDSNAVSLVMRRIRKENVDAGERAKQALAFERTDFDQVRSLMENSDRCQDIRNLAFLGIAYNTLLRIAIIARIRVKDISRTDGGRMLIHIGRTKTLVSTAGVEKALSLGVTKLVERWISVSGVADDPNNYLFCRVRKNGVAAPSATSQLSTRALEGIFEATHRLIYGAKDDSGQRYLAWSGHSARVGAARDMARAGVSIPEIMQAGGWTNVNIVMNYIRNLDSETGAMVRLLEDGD

T2: Cre recombinase monomer with E176M mutation
T2 chain: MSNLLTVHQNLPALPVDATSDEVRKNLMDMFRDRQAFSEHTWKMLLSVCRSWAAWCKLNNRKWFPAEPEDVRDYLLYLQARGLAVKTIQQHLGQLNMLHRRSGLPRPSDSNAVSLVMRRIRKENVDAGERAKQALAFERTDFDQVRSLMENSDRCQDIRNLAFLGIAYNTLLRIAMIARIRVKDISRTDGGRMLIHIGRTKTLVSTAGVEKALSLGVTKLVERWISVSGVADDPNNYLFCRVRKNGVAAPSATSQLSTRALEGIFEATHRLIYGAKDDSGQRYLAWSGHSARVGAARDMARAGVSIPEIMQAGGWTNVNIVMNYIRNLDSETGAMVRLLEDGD

T3: Cre recombinase monomer with E176V mutation
T3 chain: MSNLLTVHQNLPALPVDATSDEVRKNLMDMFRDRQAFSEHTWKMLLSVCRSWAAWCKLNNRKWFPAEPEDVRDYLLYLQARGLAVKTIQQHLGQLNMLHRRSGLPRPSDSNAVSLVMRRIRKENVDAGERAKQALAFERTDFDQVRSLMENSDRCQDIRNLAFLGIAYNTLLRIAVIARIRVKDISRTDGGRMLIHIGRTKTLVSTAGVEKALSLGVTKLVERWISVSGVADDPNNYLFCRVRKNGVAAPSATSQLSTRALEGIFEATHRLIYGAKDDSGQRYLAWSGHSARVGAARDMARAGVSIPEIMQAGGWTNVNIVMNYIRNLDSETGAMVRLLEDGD

T4: Cre recombinase monomer with E176W mutation
T4 chain: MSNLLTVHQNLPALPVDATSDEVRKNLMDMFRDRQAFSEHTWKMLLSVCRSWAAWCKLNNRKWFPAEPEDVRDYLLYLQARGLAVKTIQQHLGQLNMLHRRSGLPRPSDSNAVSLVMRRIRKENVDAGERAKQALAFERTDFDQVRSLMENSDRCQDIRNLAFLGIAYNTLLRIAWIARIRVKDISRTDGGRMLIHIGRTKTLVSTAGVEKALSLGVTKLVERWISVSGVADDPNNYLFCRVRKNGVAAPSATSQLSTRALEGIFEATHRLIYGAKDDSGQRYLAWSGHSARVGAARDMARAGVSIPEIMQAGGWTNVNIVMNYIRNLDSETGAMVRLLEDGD

T5: Cre recombinase monomer with E176Y mutation
T5 chain: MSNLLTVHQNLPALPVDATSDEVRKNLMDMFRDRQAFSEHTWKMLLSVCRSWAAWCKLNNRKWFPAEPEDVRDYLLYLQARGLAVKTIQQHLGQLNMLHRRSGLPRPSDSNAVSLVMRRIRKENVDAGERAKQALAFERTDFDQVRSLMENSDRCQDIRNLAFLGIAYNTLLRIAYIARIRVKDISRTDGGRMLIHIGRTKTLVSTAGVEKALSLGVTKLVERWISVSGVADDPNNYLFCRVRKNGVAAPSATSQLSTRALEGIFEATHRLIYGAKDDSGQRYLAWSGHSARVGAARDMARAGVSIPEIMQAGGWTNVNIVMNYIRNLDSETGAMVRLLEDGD

T6: Cre recombinase monomer with K201Q mutation
T6 chain: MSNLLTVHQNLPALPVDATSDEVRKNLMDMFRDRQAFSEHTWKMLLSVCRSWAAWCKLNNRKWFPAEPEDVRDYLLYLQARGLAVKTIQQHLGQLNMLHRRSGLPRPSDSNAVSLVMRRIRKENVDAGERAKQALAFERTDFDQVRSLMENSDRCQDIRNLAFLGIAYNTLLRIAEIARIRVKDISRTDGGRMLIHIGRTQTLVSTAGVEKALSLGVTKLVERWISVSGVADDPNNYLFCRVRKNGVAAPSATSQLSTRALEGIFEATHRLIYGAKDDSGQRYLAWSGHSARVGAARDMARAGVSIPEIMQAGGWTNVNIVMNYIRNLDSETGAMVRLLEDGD

T7: Cre recombinase monomer with Q311R mutation
T7 chain: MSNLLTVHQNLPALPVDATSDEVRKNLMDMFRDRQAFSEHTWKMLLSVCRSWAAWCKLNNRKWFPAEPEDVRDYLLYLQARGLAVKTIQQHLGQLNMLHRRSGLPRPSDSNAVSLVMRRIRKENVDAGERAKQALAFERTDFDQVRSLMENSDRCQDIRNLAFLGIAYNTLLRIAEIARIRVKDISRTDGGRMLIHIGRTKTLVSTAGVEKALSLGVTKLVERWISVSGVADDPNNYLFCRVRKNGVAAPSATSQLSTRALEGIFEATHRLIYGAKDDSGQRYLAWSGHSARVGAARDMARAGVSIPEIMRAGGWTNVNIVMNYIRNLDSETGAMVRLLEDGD

T8: Cre recombinase monomer with E176H mutation
T8 chain: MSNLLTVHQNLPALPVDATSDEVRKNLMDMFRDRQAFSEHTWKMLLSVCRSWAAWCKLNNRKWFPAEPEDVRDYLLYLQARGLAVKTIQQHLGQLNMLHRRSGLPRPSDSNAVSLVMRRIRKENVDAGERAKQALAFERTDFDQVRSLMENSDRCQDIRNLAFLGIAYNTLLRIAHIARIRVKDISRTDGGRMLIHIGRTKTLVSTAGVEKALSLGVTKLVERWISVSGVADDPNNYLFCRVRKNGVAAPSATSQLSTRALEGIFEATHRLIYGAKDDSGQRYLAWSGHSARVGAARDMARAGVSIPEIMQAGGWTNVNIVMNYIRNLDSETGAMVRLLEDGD

T9: Cre recombinase monomer with K201F mutation
T9 chain: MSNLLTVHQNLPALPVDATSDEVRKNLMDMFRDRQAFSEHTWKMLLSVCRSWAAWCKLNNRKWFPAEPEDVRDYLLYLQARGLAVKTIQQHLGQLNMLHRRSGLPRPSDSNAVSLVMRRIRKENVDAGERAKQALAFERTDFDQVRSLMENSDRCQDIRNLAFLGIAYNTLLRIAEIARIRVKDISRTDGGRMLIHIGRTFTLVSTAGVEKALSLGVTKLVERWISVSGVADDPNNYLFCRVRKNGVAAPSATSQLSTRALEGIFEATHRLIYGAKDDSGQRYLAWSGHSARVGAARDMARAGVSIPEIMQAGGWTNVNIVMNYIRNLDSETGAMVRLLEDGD

T10: Cre recombinase monomer with W315M mutation
T10 chain: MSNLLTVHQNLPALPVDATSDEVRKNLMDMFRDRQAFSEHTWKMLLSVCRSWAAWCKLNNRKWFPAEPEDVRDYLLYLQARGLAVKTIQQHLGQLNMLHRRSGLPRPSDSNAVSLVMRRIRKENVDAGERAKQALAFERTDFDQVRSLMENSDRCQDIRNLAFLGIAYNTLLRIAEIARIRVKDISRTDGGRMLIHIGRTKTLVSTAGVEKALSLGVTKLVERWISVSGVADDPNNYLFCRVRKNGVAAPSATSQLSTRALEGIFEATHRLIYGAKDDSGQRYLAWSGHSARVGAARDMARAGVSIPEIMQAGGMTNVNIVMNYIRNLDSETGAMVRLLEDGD

T11: Cre recombinase monomer with Y324N mutation
T11 chain: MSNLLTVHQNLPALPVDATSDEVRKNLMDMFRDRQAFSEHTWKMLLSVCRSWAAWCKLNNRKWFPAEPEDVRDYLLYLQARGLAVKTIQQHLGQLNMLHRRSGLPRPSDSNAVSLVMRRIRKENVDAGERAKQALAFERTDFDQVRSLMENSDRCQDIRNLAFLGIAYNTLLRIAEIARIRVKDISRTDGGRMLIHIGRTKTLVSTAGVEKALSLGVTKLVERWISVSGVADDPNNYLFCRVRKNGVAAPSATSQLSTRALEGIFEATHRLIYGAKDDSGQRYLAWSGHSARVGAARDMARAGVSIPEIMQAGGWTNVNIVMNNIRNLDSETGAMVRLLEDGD

T12: Cre recombinase monomer with K201Y mutation
T12 chain: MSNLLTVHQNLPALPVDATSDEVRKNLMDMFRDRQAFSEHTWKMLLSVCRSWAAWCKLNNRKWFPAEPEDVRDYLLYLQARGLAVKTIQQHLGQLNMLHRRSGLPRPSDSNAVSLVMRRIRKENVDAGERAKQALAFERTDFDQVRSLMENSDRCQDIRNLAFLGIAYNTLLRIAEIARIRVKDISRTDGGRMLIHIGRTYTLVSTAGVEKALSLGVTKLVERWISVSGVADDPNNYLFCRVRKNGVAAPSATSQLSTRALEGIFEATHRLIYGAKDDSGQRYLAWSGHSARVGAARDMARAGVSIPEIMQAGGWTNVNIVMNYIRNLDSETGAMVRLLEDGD

T13: Cre recombinase monomer with Y324T mutation
T13 chain: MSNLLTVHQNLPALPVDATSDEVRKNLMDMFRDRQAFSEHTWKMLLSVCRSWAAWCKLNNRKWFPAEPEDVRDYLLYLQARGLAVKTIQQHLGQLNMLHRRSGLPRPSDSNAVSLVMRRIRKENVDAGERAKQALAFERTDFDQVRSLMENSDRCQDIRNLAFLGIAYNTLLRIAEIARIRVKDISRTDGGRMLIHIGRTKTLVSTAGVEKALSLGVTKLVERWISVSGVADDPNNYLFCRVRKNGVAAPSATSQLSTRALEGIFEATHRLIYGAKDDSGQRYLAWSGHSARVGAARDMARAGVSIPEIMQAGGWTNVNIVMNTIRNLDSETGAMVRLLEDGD


Experiments:
[1] = target: T1, Cre recombinase monomer with E176I …
[2] = target: T2, Cre recombinase monomer with E176M …
[3] = target: T3, Cre recombinase monomer with E176V …
[4] = target: T4, Cre recombinase monomer with E176W …
[5] = target: T5, Cre recombinase monomer with E176Y …
[6] = target: T6, Cre recombinase monomer with K201Q …
[7] = target: T7, Cre recombinase monomer with Q311R …
[8] = target: T8, Cre recombinase monomer with E176H …
[9] = target: T9, Cre recombinase monomer with K201F …
[10] = target: T10, Cre recombinase monomer with W315M …
[11] = target: T11, Cre recombinase monomer with Y324N …
[12] = target: T12, Cre recombinase monomer with K201Y …
[13] = target: T13, Cre recombinase monomer with Y324T …

Protein | Median dimer activity (recombination on loxP) [1] [%] | Median dimer activity (recombination on loxP) [2] [%] | Median dimer activity (recombination on loxP) [3] [%] | Median dimer activity (recombination on loxP) [4] [%] | Median dimer activity (recombination on loxP) [5] [%] | Median dimer activity (recombination on loxP) [6] [%] | Median dimer activity (recombination on loxP) [7] [%] | Median dimer activity (recombination on loxP) [8] [%] | Median dimer activity (recombination on loxP) [9] [%] | Median dimer activity (recombination on loxP) [10] [%] | Median dimer activity (recombination on loxP) [11] [%] | Median dimer activity (recombination on loxP) [12] [%] | Median dimer activity (recombination on loxP) [13] [%]
Cre recombinase monomer with R173F mutation (protein) MSNLLTVHQNLPALPVDATSDEVRKNLMDMFRDRQAFSEHTWKMLLSVCRSWAAWCKLNNRKWFPAEPEDVRDYLLYLQARGLAVKTIQQHLGQLNMLHRRSGLPRPSDSNAVSLVMRRIRKENVDAGERAKQALAFERTDFDQVRSLMENSDRCQDIRNLAFLGIAYNTLLFIAEIARIRVKDISRTDGGRMLIHIGRTKTLVSTAGVEKALSLGVTKLVERWISVSGVADDPNNYLFCRVRKNGVAAPSATSQLSTRALEGIFEATHRLIYGAKDDSGQRYLAWSGHSARVGAARDMARAGVSIPEIMQAGGWTNVNIVMNYIRNLDSETGAMVRLLEDGD | 25 | 38 | 82 | 30 | 40 | 39 | 84 | – | – | – | – | – | –
Cre recombinase monomer with R173L mutation (protein) MSNLLTVHQNLPALPVDATSDEVRKNLMDMFRDRQAFSEHTWKMLLSVCRSWAAWCKLNNRKWFPAEPEDVRDYLLYLQARGLAVKTIQQHLGQLNMLHRRSGLPRPSDSNAVSLVMRRIRKENVDAGERAKQALAFERTDFDQVRSLMENSDRCQDIRNLAFLGIAYNTLLLIAEIARIRVKDISRTDGGRMLIHIGRTKTLVSTAGVEKALSLGVTKLVERWISVSGVADDPNNYLFCRVRKNGVAAPSATSQLSTRALEGIFEATHRLIYGAKDDSGQRYLAWSGHSARVGAARDMARAGVSIPEIMQAGGWTNVNIVMNYIRNLDSETGAMVRLLEDGD | – | – | – | – | – | – | 94 | 66 | 41 | 63 | 88 | – | –
Cre recombinase monomer with R173G mutation (protein) MSNLLTVHQNLPALPVDATSDEVRKNLMDMFRDRQAFSEHTWKMLLSVCRSWAAWCKLNNRKWFPAEPEDVRDYLLYLQARGLAVKTIQQHLGQLNMLHRRSGLPRPSDSNAVSLVMRRIRKENVDAGERAKQALAFERTDFDQVRSLMENSDRCQDIRNLAFLGIAYNTLLGIAEIARIRVKDISRTDGGRMLIHIGRTKTLVSTAGVEKALSLGVTKLVERWISVSGVADDPNNYLFCRVRKNGVAAPSATSQLSTRALEGIFEATHRLIYGAKDDSGQRYLAWSGHSARVGAARDMARAGVSIPEIMQAGGWTNVNIVMNYIRNLDSETGAMVRLLEDGD | – | – | – | – | – | – | 95 | – | – | – | – | 95 | 32
